The source of these data is US20110020361A1 (GOVERNMENT OF THE UNITED STATES OF AMERICA AS REPRESENTED …, published 2011).

In the assay the target is T1, recombinant human mesothelin (amino acids 296-600 of SEQ ID NO: 4) (human, UniProt Q13421 296-600).
T1 construct: Secreted from SF9 insect cells (baculovirus vector pAcGP67) and purified by nickel column and gel filtration; It was coated on ELISA plates and, biotin-labelled, used for panning; also called recombinant mesothelin; purified mesothelin
In words: ELISA, recombinant mesothelin coated on plate, anti-FLAG-HRP detection.

Description: Antigen (mesothelin) diluted in PBS was coated on narrow-well 96-well plates at 50 ng/well overnight at 4° C. Wells were blocked with 100 μl of 4% milk/PBS (MPBS) for 1 hour at 37° C. […] Fifty μl of diluted Fab was added to duplicate wells. For competition ELISA, designated concentrations of competing IgG were included in all Fab solutions. After 2 hours of incubation at 37° C., the wells were washed with PBST (PBS+0.05% Tween 20) 4 times. […] Wells were washed again with PBST. Substrate ABTS was added (50 μl/well), and the reaction was read at A405 nm. For ELISA with IgG, a goat anti-human Fc IgG conjugated with HRP was used at 1:1000.

B1: Fab m912 (Fab, V domains shown)
VH: QVQLQESGPGLVKPSETLSLTCTVSGGSVSSGSYYWSWIRQPPGKGLEWIGYIYYSGSTNYNPSLKSRVTISVDTSKNQFSLKLSSVTAADTAVYYCAREGKNGAFDIWGQGTMVTVSS
VL: not shown
notes: Human Fab from a naive Fab phage library, expressed in E. coli HB2151; also called clone m912; mesothelin-specific antibody m912
For orientation: EC50 means the concentration that produces a half-maximal response. Take B1: the EC50 worked out at 20 nM.
